Source: US20170260282A1 (Janssen / Centocor, published 2017)

Tests used:
[1] = target: T1, Human GITR (cell surface) (human, UniProt Q9Y5U5 26-241); experiment: cell-based or functional assay
T1 sequence: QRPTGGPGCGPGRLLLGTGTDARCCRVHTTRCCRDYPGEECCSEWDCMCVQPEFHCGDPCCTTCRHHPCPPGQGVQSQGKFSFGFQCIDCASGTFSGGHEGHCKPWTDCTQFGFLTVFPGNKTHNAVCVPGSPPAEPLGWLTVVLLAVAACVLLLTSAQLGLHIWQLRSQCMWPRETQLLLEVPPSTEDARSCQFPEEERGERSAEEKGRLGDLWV

Cyno GITR (cell surface) [2] = target: T2, Cyno GITR (cell surface) (cynomolgus monkey); experiment: cell-based or functional assay
T2 chain: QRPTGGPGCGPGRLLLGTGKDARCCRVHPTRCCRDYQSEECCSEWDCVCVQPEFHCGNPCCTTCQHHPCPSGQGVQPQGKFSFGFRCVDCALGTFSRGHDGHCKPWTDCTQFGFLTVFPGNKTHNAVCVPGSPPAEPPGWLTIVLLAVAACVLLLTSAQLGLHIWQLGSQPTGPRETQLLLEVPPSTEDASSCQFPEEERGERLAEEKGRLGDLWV

Cyno GITR (cell surface) [3] = target: T2, Cyno GITR (cell surface); experiment: MSD-CAT, cyno against human GITR, study 1
Method: (§1) The MSD-CAT was developed in-house as a label-free method to determine affinity using intact cells in a high throughput format. The parental HEK293 cell line without any GITR expressed was used as a negative control.
(§2) These samples were prepared in DMEM Glutamax medium (Invitrogen, Prod #10569-044) with 0.05% Azide, 1% BSA, 3 mM EDTA. After equilibration the plates were centrifuged for 5 min at 2000 rpm and free anti-GITR mAbs are detected in the supernatant. The free anti-GITR mAbs in the mixture were detected by electrochemiluminescence (ECL) using MSD reader instrument. For detection, MSD-Streptavidin plates (MesoScale Discovery, Prod #L11SA-1) were coated with 0.1 μg/mL of biotinylated human-GITR antigen in assay buffer at 50 μL/well and equilibrated overnight (˜16 hr at 4° C.). […] After 1 hr, the plates were washed three times with wash buffer and 150 μL of MSD Read Buffer (MesoScale Discovery Cat #R92TC-1; prepared by diluting 1:3 of stock into d. H2O) were added per well. The plates were read immediately on the MSD Sector Imager 6000 Reader for luminescence levels. ECL signal detected by MSD was expressed in term of % free antibody in the mixture and the data was analyzed to determine affinity using a user defined equation (derived from the law of mass action) introduced in Prism software.

[4] = target: T3, recombinant human GITR ECD (human, UniProt Q9Y5U5 26-161); experiment: SPR (ProteOn XPR36), mAb captured by anti-human Fc, GITR ECD as analyte, 25 °C
T3 construct: also called human GITR extracellular domain
T3 sequence: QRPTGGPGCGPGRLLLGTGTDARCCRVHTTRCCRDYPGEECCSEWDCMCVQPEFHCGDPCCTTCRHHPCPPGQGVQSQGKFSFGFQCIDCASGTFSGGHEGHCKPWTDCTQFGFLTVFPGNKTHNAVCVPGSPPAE
Method: (§3) The affinities of the GITR antibodies to recombinant human GITR ECD were measured by Surface Plasmon Resonance (SPR) using a ProteOn XPR36 protein interaction array system (BioRad).
(§4) The rates of GITR ECD association and dissociation were measured for each variant. The biosensor surface was prepared by covalently coupling Goat anti-Human IgG (Fc) to the surface of a GLC chip (BioRad) using the manufacturer instructions for amine-coupling chemistry. Approximately 8800 RU (response units) of Goat anti-Human IgG (Fc) antibody (Jackson ImmunoResearch laboratories Prod #109-005-098) were immobilized. […] Since the mixture was 1:1 about 50% of these RU immobilized are expected to be goat anti-human Fc. The binding kinetics experiments were performed at 25° C. in running buffer (PBS pH 7.4, 0.005% P20, 3 mM EDTA). […] (1:3) serial dilutions of human GITR ECD or cyno GITR ECD starting at 100 nM were prepared in running buffer. […] The reference spots (Goat anti-Human IgG (Fc)-modified surface) containing no candidate captured were used as a reference surface. Capture of mAb was followed by 3 min injection (association phase) of antigen at 40 μL/min, followed by 10 min of buffer flow (dissociation phase). The chip surface was regenerated by injection of 0.85% phosphoric acid at 100 μL/min. Data were processed on the instrument software. Double reference subtraction of the data was performed by subtracting the curves generated by buffer injection from the reference-subtracted curves for analyte injections. Kinetic analysis of the data was performed using 1:1 Langmuir binding model with group fit. The result for each mAb was reported in the format of kon or on-rate, koff or off-rate, and KD (Equilibrium dissociation constant) (Table 7).

cyno GITR ECD = target: T4, cyno GITR ECD (cynomolgus monkey); experiment: as above
T4 construct: Only the extracellular domain stood in the SPR assay
T4 chain: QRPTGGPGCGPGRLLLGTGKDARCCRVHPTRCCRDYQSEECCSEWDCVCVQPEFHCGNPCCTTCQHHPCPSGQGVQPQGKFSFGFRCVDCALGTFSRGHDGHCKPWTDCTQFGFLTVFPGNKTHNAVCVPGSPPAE
Method: as §3, §4

[5] = target: T1, Human GITR (cell surface); experiment: MSD-CAT, GITR-expressing HEK293 cells, study 1
Method: as §1, §2

Cyno GITR (cell surface) [6] = target: T2, Cyno GITR (cell surface); experiment: MSD-CAT, GITR-expressing HEK293 cells, study 1
Method: as §1, §2

ADCC EC50, HEK293-hGITR target cells, NK-92 FcγRIIIa 176V/V effector cells [1]: 1.9 ng/mL | ADCC EC50, HEK293-cyno GITR target cells, NK-92 FcγRIIIa 176V/V effector cells (Cyno GITR (cell surface) [2]): 2.5 ng/mL | KD Fold Difference (Cy/Hu) (Cyno GITR (cell surface) [3]): 11.4 fold | Kd [4]: 0.0202 nM | koff [4]: 2.02e-05 s⁻¹ | kon [4]: 996000 M⁻¹ s⁻¹ | Kd (cyno GITR ECD): 8.6 nM | koff (cyno GITR ECD): 0.00257 s⁻¹ | kon (cyno GITR ECD): 299000 M⁻¹ s⁻¹ | Kd [5]: ~0.01 nM | Kd (Cyno GITR (cell surface) [6]): 0.115 nM
B1: TRGB153 (antibody, human IgG1, kappa, V domains shown)
VH: QVQLVQSGAEVKKPGSSVKVSCKASGGTFSSYAISWVRQAPGQGLEWMGGIIPIFGTANYAQKFQGRVTITADESTSTAYMELSSLRSEDTAVYYCARHAWLGHLDYWGQGTLVTVSS
VL: EIVLTQSPATLSLSPGERATLSCRASQSVSSYLAWYQQKPGQAPRLLIYDASNRATGIPARFSGSGSGTDFTLTISSLEPEDFAVYYCQQRSNWPLTFGQGTKVEIKR
notes: human IgG1/kappa
